Measurements from patent US20230218710A1, “METHOD OF TREATING CORONAVIRUS INFECTIONS” (priority 2020, published 2023).

How the values were obtained:
[1] = biological target: T1, Apelin Receptor (APJ) (Homo sapiens, UniProt P35414); test: Phosphorylation of ERK1/2 in cultured cells overexpressing APJ; type: cell-based; details: 5 min, 100 nM Pyr-Apelin-13 = positive control, acetate salts
T1 construct: host or cells: CHO-K1 AGTRL1 Gi cells
T1 sequence (P35414 1-380): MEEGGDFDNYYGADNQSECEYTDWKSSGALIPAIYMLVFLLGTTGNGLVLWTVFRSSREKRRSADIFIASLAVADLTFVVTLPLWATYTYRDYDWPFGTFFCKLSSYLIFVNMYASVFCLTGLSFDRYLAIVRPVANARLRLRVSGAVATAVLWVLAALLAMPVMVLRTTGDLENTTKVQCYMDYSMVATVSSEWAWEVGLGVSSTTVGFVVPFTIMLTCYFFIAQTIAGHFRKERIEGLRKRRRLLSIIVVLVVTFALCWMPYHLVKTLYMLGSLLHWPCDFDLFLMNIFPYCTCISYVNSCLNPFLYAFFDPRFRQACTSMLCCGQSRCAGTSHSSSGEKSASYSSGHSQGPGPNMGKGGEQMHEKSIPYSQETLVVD
Procedure: The effect of the peptides of the current invention on activation of Apelin Receptor (APJ)-mediated signaling can be assessed using an assay to monitor phospho-ERK/phospho-p44/42 MAPK (p-ERK1/2) levels in cultured cells overexpressing Apelin Receptor (APJ) such as CHO-K1, derived from Chinese hamster ovary. Peptides were initially prepared as 100× stocks in H2O. […] Following a 5 min incubation the supernatant was removed and the cells were placed on ice and washed twice with cold HBSS. The HBSS was removed and the cells were immediately lysed in 300 μl/well of 1× lysis buffer (CST 10× Lysis Buffer; Cell Signaling Technology; Danvers, Mass.); lysis buffer was supplemented with 1 mM PMSF (Millipore-Sigma; Saint Louis, Mo.) and Halt Protease/Phosphatase Inhibitor Cocktail (Thermo-Fisher; Waltham, Mass.) prior to use. The samples were then placed on ice for 10 min, wells were scraped and lysates transferred to microfuge tubes. The samples were centrifuged at 12,500 rpm for 10 min at 4° C. and p-ERK1/2 expression in each sample was measured using Phospho-p44/42 MAPK (Thr202/Tyr204) Sandwich ELISA kit according to manufacturer's instructions (Cell Signaling Technology; Danvers, Mass.). Absorbance was measured using a Cytation 3 plate reader at […] (BioTek; Winooski, Vt.). […] Each data point represents the average of duplicate assays.

[2] = biological target: T1, Apelin Receptor (APJ); test: Phosphorylation of MEK1 in cultured cells overexpressing APJ; type: cell-based; details: 5 min, 100 nM Pyr-Apelin-13 = positive control, acetate salts
Procedure: Peptides were initially prepared as 100× stocks in H2O. […] Following a 5 min incubation, the supernatant was removed and the cells were placed on ice and washed twice with cold HBSS. The HBSS was removed and the cells were immediately lysed in 300 μl/well of 1× lysis buffer (CST 10× Lysis Buffer; Cell Signaling Technology; Danvers, Mass.); lysis buffer was supplemented with 1 mM PMSF (Millipore-Sigma; Saint Louis, Mo.) and Halt Protease/Phosphatase Inhibitor Cocktail (Thermo-Fisher; Waltham, Mass.) prior to use. The samples were then placed on ice for 10 min, the wells were scraped and lysates were centrifuged at 12,500 rpm for 10 min at 4° C., and p-MEK expression in each sample was measured using Phospho-MEK1 (Ser217/221) Sandwich ELISA kit according to manufacturer's instructions (Cell Signaling Technology; Danvers, Mass.). Absorbance was measured using a Cytation 3 plate reader at […] (BioTek; Winooski, Vt.). […] Each data point represents the average of duplicate assays.

[3] = system: LPS-induced acute lung injury mouse model; test: LPS-induced acute lung injury model in mouse (Example 6); type: in vivo, mice; details: histopathology, 24 h after LPS, 5 mg/kg i.p.
Procedure: The effect of the peptides of the current invention on acute lung injury can be assessed in an LPS-induced acute lung injury mouse model by monitoring outcomes such as lung weight, fluid accumulation, cytokine secretion in blood or bronchoalveolar lavage fluid (BALF), neutrophil infiltration into lung tissues, and assessment of acute lung injury score by histopathology. Acute lung injury was induced in male C57BL/6 mice (6 to 8 weeks old) by intratracheal administration of 40 μL lipopolysaccharide (LPS) (Sigma Aldrich, St. Louis, Mo.) in PBS at 5 mg/kg. Control animals received intratracheal PBS alone. […] Treatments were administered 1 h prior to LPS for animals designated for sacrifice at 4 h after LPS, or at both 1 h prior to and 6 h after LPS for animals designated for sacrifice at 24 h after LPS. At 4 or 24 hours post LPS administration, tissues were harvested. Lungs were weighed, flushed with Hanks Buffer to provide bronchoalveolar lavage fluid (BALF). Lungs were fixed in 10% neutral buffered formalin (NBF) for histopathology. Tissue slides were stained with hematoxylin and eosin (H&E) and evaluated and scored with light microscopy of 5 representative microscopic fields (100× magnification) scoring on a 0-5 scale using standard methods (Matute-Bello G et al 2011. An Official American Thoracic Society Workshop Report: Features and Measurements of Experimental Acute Lung Injury in Animals. Am J Respir Cell Mol Biol 44:725-38). The average score for five fields was calculated for each animal. Levels of pro-inflammatory cytokines in BALF were determined using a meso scale discovery (MSD) system. Data for test peptides were compared to the vehicle control group. Lung weights were normalized to body weight.

With “(PEG12)KRRLLGLVFQSLCG(dA) (KRRLLGLVFQSLCGA; N-terminal PEG12; C-terminal D-alanine; (1)..(1) PEG12; (15)..(15) D-Ala) [SEQ ID NO: 37]” the “pERK1/2 (% of Positive Control)” value ([1]; 0.4 μM peptide) was 9.9%, the “pERK1/2 (% of Positive Control)” value ([1]; 2.0 μM peptide) was 27.3% and the “pERK1/2 (% of Positive Control)” value ([1]; 10 μM peptide) was 54.2%. For the same substance, the “pERK1/2 (% of Positive Control)” value ([1]; 50 μM peptide) was 88.4%, the “pMEK1 (% of Positive Control)” value ([2]; 2.0 μM peptide) was 8.7% and the “pMEK1 (% of Positive Control)” value ([2]; 10 μM peptide) was 45.5%. The “pMEK1 (% of Positive Control)” value ([2]; 50 μM peptide) was 79.4%, the “Mean (SEM) Alveolar Neutrophil Infiltration Score” value ([3]; 0-5 scale) was 1.50 (0.14) and the “Mean (SEM) Interstitial Neutrophil Infiltration Score” value ([3]; 0-5 scale) was 1.30 (0.11). For the same substance, the “Mean (SEM) Composite Lung Injury Score” value [3] was 2.83 (0.23).
